B1: Ras-related protein Rap-1b (Homo sapiens), P61224 (parent)
chain: MREYKLVVLGSGGVGKSALTVQFVQGIFVEKYDPTIEDSYRKQVEVDAQQCMLEILDTAGTEQFTAMRDLYMKNGQGFALVYSITAQSTFNDLQDLREQILRVKDTDDVPMILVGNKCDLEDERVVGKEQGQNLARQWNNCAFLESSAKSKINVNEIFYDLVRQINRKTPVPGKARKKSSCQLL

In one assay the parent is B1. The settings on record: with rpgp1_human RAP1GAP.
MREYKLVVLGSGGVGKSALTVQFVQGIFVEKYDPTIEDSYRKQVEVDAQQCMLEILDTAGTEQATAMRDLYMKNGQGFALVYSITAQSTFNDLQDLREQILRVKDTDDVPMILVGNKCDLEDERVVGKEQGQNLARQWNNCAFLESSAKSKINVNEIFYDLVRQINRKTPVPGKARKKSSCQLL: the “effect of a mutation on the interaction” value is listed as “disrupting interaction”.

A further assay covers variants of B1. The conditions noted are these: with rpgp1_human RAP1GAP. The source holds these as a separate data set.
With MREYKLVVLGSGGVGKSALTVQFVQGIFVEKYDPTIEDSYRKQVEVDAQQCMLEILDTAGTEEFTAMRDLYMKNGQGFALVYSITAQSTFNDLQDLREQILRVKDTDDVPMILVGNKCDLEDERVVGKEQGQNLARQWNNCAFLESSAKSKINVNEIFYDLVRQINRKTPVPGKARKKSSCQLL, the “effect of a mutation on the interaction” value is reported as “disrupting interaction”.

The values above are taken from IntAct's records for PubMed 18309292.
